Blank lines part the entries; values can stand above or below the binder they belong to.
How the values were obtained:
[1] = target: T1, mouse folate receptor alpha (mFRα), recombinant protein (mouse, UniProt P35846 25-232); test: ELISA on coated mouse FOLR1, without and with 100 µM folic acid (series not separable)
T1 construct: Bought recombinant proteins (e.g. biotinylated, Acro Biosystems FO1-M82E9); also called mFOLR1; Ms FOLR1
Method: (§1) Data were normalized and technical replicates were plotted as mean±SD. Data were fitted by non-linear regression and the half-maximal effective concentration ^{∘}EC50) was calculated using GraphPad Prism 9 software. ^{∘}FIG. 1C and FIG. 1D) Binding affinity determination of anti-FOLR1 VHHs for native FOLR1. Mouse ^{∘}FIG. 1C) or human FOLR1 FIG. 1D) was overexpressed on HEK293T cells and binding of the anti-FOLR1 VHHs was assessed using flow cytometry. The mean fluorescence intensity ^{∘}MFI) of the phycoerythrin signal was plotted for each VHH concentration. Data were fitted by non-linear regression using GraphPad Prism 9 software. ^{∘}FIG. 1E) Determination of the competition of representative family members with folic acid ^{∘}FA) using ELISA. Mouse FOLR1 was coated on the plate and was pre-incubated with or without 100 μM FA before adding the VHHs. Data were fitted by non-linear regression using GraphPad Prism 9 software.
As interference with the endogenous transport of folates via FRα could have serious implications on brain homeostasis, competition between representative family members and FA for mouse FRα binding was assessed via ELISA ^{∘}FIG. 1E).

[2] = target: T1, mouse folate receptor alpha (mFRα), …; test: ELISA on recombinant FRα, cMyc tag detection
Method: as §1
(§2) In a first step, binding affinity and cross-reactivity of the purified VHHs to human and mouse FRα was assessed by ELISA, using detection of the cMyc tag ^{∘}FIG. 1A-B). […] 2HFO19 ^{∘}family 1) was the best binder of all tested VHHs to both mouse and human FRα with an EC₅₀ of 0.1 nM and 0.4 nM respectively ^{∘}FIG. 1A-B).

[3] = target: T2, human folate receptor alpha (hFRα), recombinant protein (human, UniProt P15328 25-233); test: ELISA on recombinant FRα, cMyc tag detection
T2 construct: Bought recombinant proteins (His-tagged, or biotinylated via Avi-tag, e.g. AcroBiosystems FO1-H82E2, F01-H52H1); also called hFOLR1; huFOLR1
Method: as §1, §2

T1 sequence (P35846 25-232 limits assumed): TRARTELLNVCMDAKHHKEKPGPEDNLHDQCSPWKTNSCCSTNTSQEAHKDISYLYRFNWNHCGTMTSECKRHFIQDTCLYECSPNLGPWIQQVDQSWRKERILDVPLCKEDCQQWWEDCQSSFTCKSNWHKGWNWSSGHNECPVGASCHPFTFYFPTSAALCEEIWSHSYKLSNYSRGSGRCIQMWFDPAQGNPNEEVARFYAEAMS
T2 sequence (P15328 25-233 limits assumed): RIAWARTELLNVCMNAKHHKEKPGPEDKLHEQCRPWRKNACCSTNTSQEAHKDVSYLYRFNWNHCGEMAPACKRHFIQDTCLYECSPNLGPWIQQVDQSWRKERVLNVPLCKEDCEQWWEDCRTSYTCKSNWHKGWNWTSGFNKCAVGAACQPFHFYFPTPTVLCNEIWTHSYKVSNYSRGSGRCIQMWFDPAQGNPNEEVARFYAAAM

EC50 (read off the curve) [1]: ~3 nM
B1: VHH 3MFR60 (family 10) (VHH)
VHH: QVQLQESGGGLVQAGGSLRVSCAASGIIFSMNGMGWFRQAPGKQRELVASITSGGSTKYADSVKGRFTISRDNAKNTVYLQMNSLKPEDTAVYYCNIQFGSRWSTYWGQGTQVTVSS

EC50 [2]: 0.1 nM | EC50 [3]: 0.4 nM
B2: VHH 2HFO19 (family 1) (VHH)
VHH: QVQLQESGGGLVQPGGSLRVSCAASGFPFSTVYMSWVRQAPGKGLEWVSGINNDGGVIDYADSVKGRFTISRDNAKNTLYLQLNSLKPEDTALYFCARGRSFVATLSSSLRGQGTQVTVSS
notes: also called Nb19

Reference: patent US20250304677A1 (VIB VZW, published 2025)
